This passage reports Kd results from patent US8883977B2, “MUC1 antibody” (Shionogi & Co., Ltd., priority 2010, dated 2014).

In this test the target is T1, Biotin-STn(DT*R)-20 (Homo sapiens, UniProt P15941).
T1 construct: Synthesis of MUC1 Tn20-Mer Glycopeptide; made in house; host or cells: chemical solid-phase synthesis
The experiment in a line: Affinity of antibody, Biacore T100, Sensor Chip SA. The class given is binding. To be noted: Biotin-STn(DT*R)-20 on Sensor Chip SA; read-out: dissociation constant KD. As to the method:
Biotin-STn(DT*R)-20 was solid-phased on a Sensor Chip SA (manufactured by GE Healthcare), and a dissociation constant of 12D10 was analyzed using Biacore T100.
On the technique in general: Surface plasmon resonance follows binding to a sensor surface in real time, without labels.

For orientation: Kd means the free concentration of one partner at which half of the binding sites on the other are occupied at equilibrium, for simple one-to-one binding.

T1 sequence (P15941 136-155): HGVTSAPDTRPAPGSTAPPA

B1: 12D10: mouse monoclonal IgG2a anti-MUC1 antibody raised against STn(DT*R)-20-Cys-KLH; variable regions SEQ ID NOs 2 and 3 (protein)
chain 1: EVQLVESGGGLVQPGESLKLSCESNEYEFPSHDMSWVRKTPEKRLELVAAINSDGDNTYYPDTMERRFIISRDNSKKTLYLQMSSLNSADTALYYCARLTLRNWYFDVWGAGTTVTVSS
chain 2: DIVMSQSPSSLPVSVGEKVTMSCKSSQSLLYSTNQQNYLAWYQQKSGQSPKLLVYWASTRESGVPDRFTGSGSGTDFTLTISSLKAEDLAVYYCQQYYRYPPTFGAGTKLELNRA
As for B1, the Kd came out at 9.1 nM.
